The supplement of paper PMC11865577

Legend:
Test in all cases: pull-down binding Z-score (relative to library population); higher = stronger binding
Details in all cases: RNA library: Library-2
[1] = system: TO-3-N3 (biotin conjugate)
Procedure, shortened: (§1)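 Streptavidin beads with 100 pmol of biotin-conjugated small molecule were incubated for 60 min at 25 °C with 1 μg of heat-folded Cy5- or Cy3-end-labelled RNA library in phosphate/NaCl/KCl buffer. Bound RNA was eluted in hot SDS after three washes and hybridised to a DNA barcode microarray at 55.5 °C for 20 h. Each binding score is a library-referenced Z-score, computed after beads-only subtraction and a trimmed mean of barcoded replicate probes.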

[2] = system: TO-3-N3-2 (biotin conjugate)
Procedure, shortened: as §1

TO-N3 (biotin conjugate) = system: TO-N3 (biotin conjugate)
Procedure, shortened: as §1

[3] = system: TO-N3-2 (biotin conjugate)
Procedure, shortened: as §1

## UCCUCCCAGUGGCUGGUGGA [IAV_invivo_PB2_1_Motif_9+IAV_invivo_PB2_1_Motif_9]
[1]
  pull-down binding Z-score: -0.0747
[2]
  pull-down binding Z-score: -0.322
TO-N3 (biotin conjugate)
  pull-down binding Z-score: -0.228
[3]
  pull-down binding Z-score: -0.225

## UCCUGUGGUAAUUUUAAAGUUACAAAAGGA
[1]
  pull-down binding Z-score: -0.823
[2]
  pull-down binding Z-score: -0.424
TO-N3 (biotin conjugate)
  pull-down binding Z-score: -0.795
[3]
  pull-down binding Z-score: -0.669

## UCCUGUUUACCUUUUACAAUUAAUUGCCAGGA [SHAPE_invivo_SARS-CoV-2_Motif_533]
[1]
  pull-down binding Z-score: -0.84
[2]
  pull-down binding Z-score: -0.351
TO-N3 (biotin conjugate)
  pull-down binding Z-score: -1.01
[3]
  pull-down binding Z-score: 0.272

## UCCUUACAUGGA
[1]
  pull-down binding Z-score: -0.557
[2]
  pull-down binding Z-score: -0.672
TO-N3 (biotin conjugate)
  pull-down binding Z-score: -0.321
[3]
  pull-down binding Z-score: -1.16

## UCCUUUGACAUGAGUAAUGAAGGAUCUUAUUUCUUCGGAGACAAUGCAGAGGA [IAV_invivo_NP_5_Motif_26+IAV_invivo_NP_5_Motif_26]
[1]
  pull-down binding Z-score: -0.638
[2]
  pull-down binding Z-score: -0.286
TO-N3 (biotin conjugate)
  pull-down binding Z-score: -0.711
[3]
  pull-down binding Z-score: -0.0358

## UCGCUUGCAAGUUGGAUUCAGAAUGAGUUUAACAAGGCAUGCGA [IAV_invivo_PA_3_Motif_18+IAV_invivo_PA_3_Motif_18]
[1]
  pull-down binding Z-score: -0.53
[2]
  pull-down binding Z-score: -0.227
TO-N3 (biotin conjugate)
  pull-down binding Z-score: -0.603
[3]
  pull-down binding Z-score: -0.838

## UCGUCAAUAGGGCGA [IAV_invivo_PB2_1_Motif_18+IAV_invivo_PB2_1_Motif_18]
[1]
  pull-down binding Z-score: -0.228
[2]
  pull-down binding Z-score: -0.184
TO-N3 (biotin conjugate)
  pull-down binding Z-score: -0.554
[3]
  pull-down binding Z-score: -0.56

## UCGUGUUAAAAAUCUGAAUUCUUCUAGAGUUCCUGAUCUUCUGGUCUAAACGAACUAAAUAUUAUAUUAGUUUUUCUGUUUGGAACUUUAAUUUUAGCCAUGG
[1]
  pull-down binding Z-score: -0.635
[2]
  pull-down binding Z-score: -0.138
TO-N3 (biotin conjugate)
  pull-down binding Z-score: -0.609
[3]
  pull-down binding Z-score: -0.59

## UCUAAAUGAAACUCUUGUUACAAUGCCACUUGGCUAUGUAACACAUGGCUUAAAUUUGGA
[1]
  pull-down binding Z-score: -1.01
[2]
  pull-down binding Z-score: -0.364
TO-N3 (biotin conjugate)
  pull-down binding Z-score: -1.16
[3]
  pull-down binding Z-score: -1.03

## UCUAACUUUAGAGUCCAACCAACAGAAUCUAUUGUUAGA
[1]
  pull-down binding Z-score: 0.171
[2]
  pull-down binding Z-score: -0.138
TO-N3 (biotin conjugate)
  pull-down binding Z-score: -0.148
[3]
  pull-down binding Z-score: -0.918

## UCUAUACAGAACUGGA [SHAPE_invivo_SARS-CoV-2_Motif_242]
[1]
  pull-down binding Z-score: 1.18
[2]
  pull-down binding Z-score: -0.0262
TO-N3 (biotin conjugate)
  pull-down binding Z-score: 0.79
[3]
  pull-down binding Z-score: -0.496

## UCUAUUAAAAUAUAAUGA [DMSMaPseq_invitro_SARS-CoV-2_Motif_395]
[1]
  pull-down binding Z-score: -0.0176
[2]
  pull-down binding Z-score: -0.157
TO-N3 (biotin conjugate)
  pull-down binding Z-score: -0.185
[3]
  pull-down binding Z-score: -0.693

## UCUCCUCAUUUACUGUGAAUGUGAGGGGA [IAV_invivo_PB2_1_Motif_31+IAV_invivo_PB2_1_Motif_31]
[1]
  pull-down binding Z-score: -0.428
[2]
  pull-down binding Z-score: -0.219
TO-N3 (biotin conjugate)
  pull-down binding Z-score: -0.72
[3]
  pull-down binding Z-score: -0.905

## UCUCGUUCACUGGGGA [IAV_invivo_PA_3_Motif_5+IAV_invivo_PA_3_Motif_5]
[1]
  pull-down binding Z-score: 0.366
[2]
  pull-down binding Z-score: 0.0349
TO-N3 (biotin conjugate)
  pull-down binding Z-score: 0.198
[3]
  pull-down binding Z-score: -0.216

## UCUCUAAUGAGA
[1]
  pull-down binding Z-score: -0.823
[2]
  pull-down binding Z-score: -0.652
TO-N3 (biotin conjugate)
  pull-down binding Z-score: -1.38
[3]
  pull-down binding Z-score: -1.53

## UCUCUAUGACAAACUUGUUUCAAGCUUUUUGGAAAUGAAGAGUGAAAAGCAAGUUGAACAAAAGAUCGCUGAGA [SHAPE_invitro_SARS-CoV-2_Motif_69]
[1]
  pull-down binding Z-score: -0.0465
[2]
  pull-down binding Z-score: -0.507
TO-N3 (biotin conjugate)
  pull-down binding Z-score: -0.0892
[3]
  pull-down binding Z-score: 0.388

## UCUCUCUCAUUUUGUUAACUUAGACAACCUGAGAGCUAAUAACACUAAAGGUUCAUUGCCUAUUAAUGUUAUAGUUUUUGAUGGUAAAUCAAAAUGUGAAGA [DMSMaPseq_invitro_SARS-CoV-2_Motif_146]
[1]
  pull-down binding Z-score: -0.765
[2]
  pull-down binding Z-score: -0.388
TO-N3 (biotin conjugate)
  pull-down binding Z-score: -0.723
[3]
  pull-down binding Z-score: -0.699

## UCUGAAGAAGUAGUGGAAAAUCCUACCAUACAGA [DMSMaPseq_invitro_SARS-CoV-2_Motif_122]
[1]
  pull-down binding Z-score: -0.124
[2]
  pull-down binding Z-score: -0.226
TO-N3 (biotin conjugate)
  pull-down binding Z-score: 0.657
[3]
  pull-down binding Z-score: 0.514

## UCUGACAGUCCAUGUGAGUCUCAUGGAAAACAAGUAGUGUCAGA [SHAPE_invivo_SARS-CoV-2_Motif_364]
[1]
  pull-down binding Z-score: -0.582
[2]
  pull-down binding Z-score: -0.0689
TO-N3 (biotin conjugate)
  pull-down binding Z-score: -0.868
[3]
  pull-down binding Z-score: -0.73

## UCUGCACUGUUAGCGGGUACAAUCACUUCUGGUUGGACCUUUGGUGCAGG
[1]
  pull-down binding Z-score: -0.66
[2]
  pull-down binding Z-score: -0.38
TO-N3 (biotin conjugate)
  pull-down binding Z-score: -0.815
[3]
  pull-down binding Z-score: -1.07

## UCUGCCUAUACAGUUGAACUCGGUACAGAAGUAAAUGAGUUCGCCUGUGUUGUGGCAGA [SHAPE_invivo_SARS-CoV-2_Motif_57]
[1]
  pull-down binding Z-score: -0.71
[2]
  pull-down binding Z-score: -0.334
TO-N3 (biotin conjugate)
  pull-down binding Z-score: -0.415
[3]
  pull-down binding Z-score: 1.36

## UCUGCUCGCAUAGUGUAUACAGCUUGCUCUCAUGCCGCUGUUGAUGCACUAUGUGAGAAGGCAUUAAAAUAUUUGCCUAUAGA
[1]
  pull-down binding Z-score: -0.598
[2]
  pull-down binding Z-score: -0.447
TO-N3 (biotin conjugate)
  pull-down binding Z-score: -0.615
[3]
  pull-down binding Z-score: -0.0527

## UCUGGAGUAAAAGACUGUGUUGUAUUACACAGUUACUUCACUUCAGA
[1]
  pull-down binding Z-score: -0.0665
[2]
  pull-down binding Z-score: -0.0465
TO-N3 (biotin conjugate)
  pull-down binding Z-score: -0.481
[3]
  pull-down binding Z-score: -0.98

## UCUGUACCGUCUGCGGUAUGUGGA [DMSMaPseq_invitro_SARS-CoV-2_Motif_240]
[1]
  pull-down binding Z-score: -0.562
[2]
  pull-down binding Z-score: -0.475
TO-N3 (biotin conjugate)
  pull-down binding Z-score: -0.694
[3]
  pull-down binding Z-score: 0.111

## UCUGUUUGGAACUUUAAUUUUAGCCAUGGCAGA
[1]
  pull-down binding Z-score: -0.689
[2]
  pull-down binding Z-score: -0.0381
TO-N3 (biotin conjugate)
  pull-down binding Z-score: -0.72
[3]
  pull-down binding Z-score: 0.0796
